Source: patent publication US20230087600A1

T1: mouse IL-10 receptor (IL-10R) on T cells and B cells of C57BL/6 mouse splenocytes (mouse) (UniProt Q61727)
T1 sequence (looked up) 1: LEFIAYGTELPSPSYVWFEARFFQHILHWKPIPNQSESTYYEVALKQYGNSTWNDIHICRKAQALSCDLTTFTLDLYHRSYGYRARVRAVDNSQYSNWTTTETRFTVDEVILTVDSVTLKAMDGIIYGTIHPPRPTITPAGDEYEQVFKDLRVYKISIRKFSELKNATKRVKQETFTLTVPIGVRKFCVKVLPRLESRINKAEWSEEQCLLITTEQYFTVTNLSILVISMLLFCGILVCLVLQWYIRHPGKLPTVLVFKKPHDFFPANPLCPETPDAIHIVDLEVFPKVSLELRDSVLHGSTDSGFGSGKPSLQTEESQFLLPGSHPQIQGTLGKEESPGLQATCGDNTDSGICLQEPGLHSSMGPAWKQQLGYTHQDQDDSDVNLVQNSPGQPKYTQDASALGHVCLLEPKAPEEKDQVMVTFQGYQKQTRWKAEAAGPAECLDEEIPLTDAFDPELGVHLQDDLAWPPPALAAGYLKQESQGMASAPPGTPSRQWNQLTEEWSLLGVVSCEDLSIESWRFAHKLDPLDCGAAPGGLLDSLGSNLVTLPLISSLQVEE
T1 sequence (looked up) 2: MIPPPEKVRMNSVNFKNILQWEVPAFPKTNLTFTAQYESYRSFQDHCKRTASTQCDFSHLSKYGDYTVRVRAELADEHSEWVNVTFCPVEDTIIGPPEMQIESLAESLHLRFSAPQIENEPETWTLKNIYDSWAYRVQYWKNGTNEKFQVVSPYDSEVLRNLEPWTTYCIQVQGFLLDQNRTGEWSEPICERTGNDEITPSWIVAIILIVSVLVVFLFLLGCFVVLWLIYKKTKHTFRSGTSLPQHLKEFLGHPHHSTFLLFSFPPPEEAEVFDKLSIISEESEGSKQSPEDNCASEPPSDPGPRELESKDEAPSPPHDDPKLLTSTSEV


Molecular target: T1, mouse IL-10 receptor (IL-10R) on T cells and B cells of C57BL/6 mouse splenocytes (mouse)
Assay: cell-based or functional assay

Binder | STAT3 phosphorylation (pY705), flow cytometry, B cells of C57BL/6 mouse splenocytes (CD19 + B cells), EC50 [pM] | STAT3 phosphorylation (pY705), flow cytometry, CD3+ T cells of C57BL/6 mouse splenocytes, EC50 [pM]
mouse IL-10 (ligand, UniProt P18893 19-178, looked up) SRGQYSREDNNCTHFPVGQSHMLLELRTAFSQVKTFFQTKDQLDNILLTDSLMQDFKGYLGCQALSEMIQFYLVEVMPQAEKHGPEIKEHLNSLGEKLKTLRMRLRRCHRFLPCENKSKAVEQVKSDFNKLQDQGVYKAMNEFDIFINCIEAYMMIKMKS | 55.3 | 91.4
5KPEG-mIL-10 (ligand, mouse, UniProt P18893 19-178, looked up, conjugated to 5 kD PEG; site of attachment not stated) SRGQYSREDNNCTHFPVGQSHMLLELRTAFSQVKTFFQTKDQLDNILLTDSLMQDFKGYLGCQALSEMIQFYLVEVMPQAEKHGPEIKEHLNSLGEKLKTLRMRLRRCHRFLPCENKSKAVEQVKSDFNKLQDQGVYKAMNEFDIFINCIEAYMMIKMKS | 120 | 390
